The record followed here is paper PMC5031971.

The target in this series is T1, CCR7 (human) (UniProt P32248).
T1 sequence: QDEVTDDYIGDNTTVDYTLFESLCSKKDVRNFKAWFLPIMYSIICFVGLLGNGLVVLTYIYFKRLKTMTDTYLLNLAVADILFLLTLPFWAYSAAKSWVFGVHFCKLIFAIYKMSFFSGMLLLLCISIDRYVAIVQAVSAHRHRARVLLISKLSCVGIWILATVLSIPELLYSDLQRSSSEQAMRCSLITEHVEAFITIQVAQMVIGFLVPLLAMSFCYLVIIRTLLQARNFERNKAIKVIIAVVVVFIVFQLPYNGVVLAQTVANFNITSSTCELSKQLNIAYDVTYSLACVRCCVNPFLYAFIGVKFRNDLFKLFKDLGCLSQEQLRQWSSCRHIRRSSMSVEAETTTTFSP
Description: flow cytometry, live cells. As to conditions: H9 cells (CCR7 positive), Cy3-RNA; 2'-F C and 2'-F U (all pyrimidines); Flow cytometry: 2.5e5 cells in 100 uL binding buffer, 30 min, room temperature; refolding/washing buffer DPBS pH 7.0-7.4, 1 mM CaCl2, 1 mM MgCl2, 2.7 mM KCl ….

Take “GGGAGGACGAUGCGGAAUUCGUCAAAGUCGUUUAUUUCGUCUGUGCAGACGACUCGCCCGA [C-2A]”: the Kd – broadly, the equilibrium constant for the complex coming apart – was determined as 65.2 nM.

On to “GGGAGGACGAUGCGGUGCCGCACAUUAGUCUCUGGUUGCCCACGCCAGACGACUCGCCCGA [DD9-9]”, for which the Kd was determined as 111 nM.
